From the supplement of paper PMC10567573

B1: FEM1A (parent)
chain: NIVEYLIQEQPGQEQVAGGEAQPG

Variants of: B1
Test: protein stability index of a GFP-peptide fusion (GPS, HEK-293T) (PSI 1-6); higher = more stable
Conditions: c terminus: a fixed tail appended
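Further: lentivirally expressed fusions sorted by FACS into six bins by GFP to DsRed ratio, PSI derived from sequencing read proportions per bin multiplied by bin number.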

Variant | protein stability index
NIVEYLIQEQPQQEQVAGGEAQPG [G12Q] | 4.61
NIVEYLIQEQPYQEQVAGGEAQPG [G12Y] | 3.12
NIVEYLIQEQPIQEQVAGGEAQPG [G12I] | 3.86
NIVEYLIQEQPFQEQVAGGEAQPG [G12F] | 3.09
NIVEYLIQEQPMQEQVAGGEAQPG [G12M] | 4.03
NIVEYLIQEQPSQEQVAGGEAQPG [G12S] | 4.65
NIVESLIQEQPGQEQVAGGEAQPG [Y5S] | 4.83
NIVEKLIQEQPGQEQVAGGEAQPG [Y5K] | 5.31
NIVETLIQEQPGQEQVAGGEAQPG [Y5T] | 5.44
NIVEMLIQEQPGQEQVAGGEAQPG [Y5M] | 3.95
NIVTYLIQEQPGQEQVAGGEAQPG [E4T] | 4.6
NIVRYLIQEQPGQEQVAGGEAQPG [E4R] | 3.48
NIVEYLIQEQPGQEQVAGGEAQGG [P23G] | 4.19
NIVEYLIQEQPGQEQVAGGEAQWG [P23W] | 3.03
NIVEYLIQEQPGQEQVAGGEAQEG [P23E] | 4.74
NIVEYLIQEQPGQEQVAGGEAQLG [P23L] | 4.24
NIVEYLIQEQPGQEQVAGGEAQNG [P23N] | 4.25
NIVEYLIQEQPGQEQVAGGEATPG [Q22T] | 3.91
NIVEYLIQEQPGQEQVAGGEAWPG [Q22W] | 2.51
NIVEYLIQEQPGQEQVAGGEAPPG [Q22P] | 4.02
NIVEYLIQEQPGQEQVAGGEANPG [Q22N] | 4.22
NIVEYLIQEQPGQEQVAGGEAMPG [Q22M] | 4.35
NWVEYLIQEQPGQEQVAGGEAQPG [I2W] | 2.59
NVVEYLIQEQPGQEQVAGGEAQPG [I2V] | 5.13

Variant | protein stability index
NRVEYLIQEQPGQEQVAGGEAQPG [I2R] | 5.59
NYVEYLIQEQPGQEQVAGGEAQPG [I2Y] | 4.59
NDVEYLIQEQPGQEQVAGGEAQPG [I2D] | 5.12
NIVEYLINEQPGQEQVAGGEAQPG [Q8N] | 4.42
NIVEYLILEQPGQEQVAGGEAQPG [Q8L] | 4.39
NIVEYLIEEQPGQEQVAGGEAQPG [Q8E] | 4.7
NIVEYLIKEQPGQEQVAGGEAQPG [Q8K] | 4.06
NIVEYLSQEQPGQEQVAGGEAQPG [I7S] | 4.75
NIVEYLQQEQPGQEQVAGGEAQPG [I7Q] | 5.3
NIVEYLYQEQPGQEQVAGGEAQPG [I7Y] | 4.33
NIVEYLKQEQPGQEQVAGGEAQPG [I7K] | 5.17
NIVEYLRQEQPGQEQVAGGEAQPG [I7R] | 4.92
NIVEYLIQEQPGQEQVAGGEAQPK [G24K] | 3.94
NIVEYLIQEQPGQEQVAGGEAQPM [G24M] | 3.86
NIVEYLIQEQPGQEQVAGGEAQPQ [G24Q] | 4.37
NIVEYLIQEQPGQEQVAGGEAQPW [G24W] | 2.86
NIVEYLIQCQPGQEQVAGGEAQPG [E9C] | 3
NIVEYLIQMQPGQEQVAGGEAQPG [E9M] | 3.35
NIVEYLIQSQPGQEQVAGGEAQPG [E9S] | 3.36
NIVEYLIQAQPGQEQVAGGEAQPG [E9A] | 2.91
NIVEYLIQEQPGQEQVAYGEAQPG [G18Y] | 3.36
NIVEYLIQEQPGQEQVATGEAQPG [G18T] | 4.2
NIVEYLIQEQPGQEQVAVGEAQPG [G18V] | 3.61
NIVEYLIQEQPGQEQVASGEAQPG [G18S] | 3.78

Variant | protein stability index
NIVEYLIQEQPGQEQVAAGEAQPG [G18A] | 4.2
NIVEYLIQEQPGQEQVAQGEAQPG [G18Q] | 4.7
NIVEYLIQEQPGQEQVACGEAQPG [G18C] | 3.8
NIVEYLIQEQPGQEQVAGGERQPG [A21R] | 4.19
NIVEYLIQEQPGQIQVAGGEAQPG [E14I] | 3.25
NIVEYLIQEQPGQMQVAGGEAQPG [E14M] | 3.34
NIVEYLIQEQPGFEQVAGGEAQPG [Q13F] | 3.78
NIVEYLIQEQPGHEQVAGGEAQPG [Q13H] | 4.04
NIIEYLIQEQPGQEQVAGGEAQPG [V3I] | 3.91
NICEYLIQEQPGQEQVAGGEAQPG [V3C] | 5.04
NIVEYLIQEQPGQEQVAGGLAQPG [E20L] | 3.54
NIVEYLIQEQPGQEQVAGGHAQPG [E20H] | 4.1
NIVEYLIQEQPGQEQVAGGRAQPG [E20R] | 3.79
NIVEYLIQEQPGQEQVAGTEAQPG [G19T] | 4.18
NIVEYLIQEQPGQEQVAGEEAQPG [G19E] | 5.05
NIVEYLIQEQPGQEQVAGIEAQPG [G19I] | 3.23
NIVEYLIQEQPGQEQGAGGEAQPG [V16G] | 4.6
NIVEYLIQEQPGQEQNAGGEAQPG [V16N] | 3.87
NIVEYLIQEQPGQEQRAGGEAQPG [V16R] | 4.2
NIVEYLIQEQPGQEQAAGGEAQPG [V16A] | 4.52
NIVEYLIQEQYGQEQVAGGEAQPG [P11Y] | 2.65
NIVEYLIQEQEGQEQVAGGEAQPG [P11E] | 4.27
NIVEYLIQEQLGQEQVAGGEAQPG [P11L] | 2.21
NIVEYLIQEQGGQEQVAGGEAQPG [P11G] | 3.89

Variant | protein stability index
NIVEYLIQEQIGQEQVAGGEAQPG [P11I] | 2.65
NIVEYLIQEFPGQEQVAGGEAQPG [Q10F] | 3.16
NIVEYLIQEVPGQEQVAGGEAQPG [Q10V] | 3.22
NIVEYLIQEHPGQEQVAGGEAQPG [Q10H] | 3.88
VIVEYLIQEQPGQEQVAGGEAQPG [N1V] | 2.76
DIVEYLIQEQPGQEQVAGGEAQPG [N1D] | 3.66
GIVEYLIQEQPGQEQVAGGEAQPG [N1G] | 4.34
FIVEYLIQEQPGQEQVAGGEAQPG [N1F] | 2.54
NIVEYLIQEQPGQESVAGGEAQPG [Q15S] | 4.52
NIVEYLIQEQPGQENVAGGEAQPG [Q15N] | 4.56
NIVEYLIQEQPGQERVAGGEAQPG [Q15R] | 3.78
NIVEYLIQEQPGQEAVAGGEAQPG [Q15A] | 4.2
NIVEYLIQEQPGQEFVAGGEAQPG [Q15F] | 3.24
NIVEYLIQEQPGQEPVAGGEAQPG [Q15P] | 4.32
NIVEYQIQEQPGQEQVAGGEAQPG [L6Q] | 5.35
NIVEYHIQEQPGQEQVAGGEAQPG [L6H] | 5.61
NIVEYDIQEQPGQEQVAGGEAQPG [L6D] | 5.26
NIVEYCIQEQPGQEQVAGGEAQPG [L6C] | 5.11
NIVEYLIQEQPGQEQVDGGEAQPG [A17D] | 4.97
NIVEYLIQEQPGQEQVSGGEAQPG [A17S] | 4.72
NIVEYLIQEQPGQEQVYGGEAQPG [A17Y] | 3.68
NIVEYLIQEQPGQEQVTGGEAQPG [A17T] | 3.91
